Like-named read-outs stand apart in the source and are kept apart here.
B1: prenylated Ypt32 (natural protein)
chain: MSNEDYGYDYDYLFKIVLIGDSGVGKSNLLSRFTTDEFNIESKSTIGVEFATRTIEVENKKIKAQIWDTAGQERYRAITSAYYRGAVGALIVYDISKSSSYENCNHWLTELRENADDNVAVGLIGNKSDLAHLRAVPTDEAKNFAMENQMLFTETSALNSDNVDKAFRELIVAIFQMVSKHQVDLSGSGTNNMGSNGAPKGPTISLTPAPKEDKKKKSSNCC
modifications: prenylated in vitro (geranylgeranyl pyrophosphate, GGTase)
B2: myristoylated Arl1 (natural protein)
chain: MGNIFSSMFDKLWGSNKELRILILGLDGAGKTTILYRLQIGEVVTTKPTIGFNVETLSYKNLKLNVWDLGGQTSIRPYWRCYYADTAAVIFVVDSTDKDRMSTASKELHLMLQEEELQDAALLVFANKQDQPGALSASEVSKELNLVELKDRSWSIVASSAIKGEGITEGLDWLIDVIKEEQL
modifications: N-myristoylated
B3: prenylated Ypt1 (natural protein)
chain: not shown
modifications: prenylated in vitro (geranylgeranyl pyrophosphate, GGTase)
B4: prenylated Ypt6 (natural protein)
chain: MSRSGKSLTKYKIVFLGEQGVGKTSLITRFMYDTFDDHYQATIGIDFLSKTMYLDDKTIRLQLWDTAGQERFRSLIPSYIRDSRVAIIVYDITKRKSFEYIDKWIEDVKNERGDENVILCIVGNKSDLSDERQISTEEGEKKAKLLGAKIFMETSTKAGYNVKALFKKIAKSLPEFQNSESTPLDSENANSANQNKPGVIDISTAEEQEQSACQC
modifications: prenylated in vitro (geranylgeranyl pyrophosphate, GGTase)

Experiments:
Gdi1 = biological target: T1, Gdi1 (S. cerevisiae, UniProt P39958 1-451); assay: SEC
T1 sequence: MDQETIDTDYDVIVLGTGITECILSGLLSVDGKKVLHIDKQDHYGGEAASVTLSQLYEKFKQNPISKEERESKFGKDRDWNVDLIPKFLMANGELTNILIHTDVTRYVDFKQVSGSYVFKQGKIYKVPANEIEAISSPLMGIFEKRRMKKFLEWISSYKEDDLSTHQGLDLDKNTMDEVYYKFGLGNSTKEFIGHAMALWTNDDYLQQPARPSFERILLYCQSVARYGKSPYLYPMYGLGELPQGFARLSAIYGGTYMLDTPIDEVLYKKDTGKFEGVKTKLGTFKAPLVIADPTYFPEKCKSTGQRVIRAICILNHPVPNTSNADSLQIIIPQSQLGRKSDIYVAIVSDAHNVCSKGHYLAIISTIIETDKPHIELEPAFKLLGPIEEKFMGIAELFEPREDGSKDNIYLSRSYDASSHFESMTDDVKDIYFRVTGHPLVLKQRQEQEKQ

Gyp6 [1] = biological target: T2, Gyp6 (S. cerevisiae (endogenous, purified …, UniProt P32806 1-458)); assay: liposome flotation
T2 sequence: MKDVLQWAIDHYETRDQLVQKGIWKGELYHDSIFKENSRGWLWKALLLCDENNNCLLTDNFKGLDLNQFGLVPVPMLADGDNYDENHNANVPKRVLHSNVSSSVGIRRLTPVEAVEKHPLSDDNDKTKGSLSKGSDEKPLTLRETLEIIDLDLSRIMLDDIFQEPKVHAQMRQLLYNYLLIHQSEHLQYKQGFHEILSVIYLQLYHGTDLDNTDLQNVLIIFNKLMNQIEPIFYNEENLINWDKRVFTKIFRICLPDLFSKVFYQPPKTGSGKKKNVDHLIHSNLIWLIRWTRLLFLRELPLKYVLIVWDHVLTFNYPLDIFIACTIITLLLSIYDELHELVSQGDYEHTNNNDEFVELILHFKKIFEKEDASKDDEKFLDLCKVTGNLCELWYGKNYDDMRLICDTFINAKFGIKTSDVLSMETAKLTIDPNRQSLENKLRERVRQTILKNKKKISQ

Sec7 = Sec7 (S. cerevisiae (endogenous, purified …, UniProt P11075 1-2009)); assay: liposome flotation
Sequence of Sec7 (S. cerevisiae (P11075 whole entry): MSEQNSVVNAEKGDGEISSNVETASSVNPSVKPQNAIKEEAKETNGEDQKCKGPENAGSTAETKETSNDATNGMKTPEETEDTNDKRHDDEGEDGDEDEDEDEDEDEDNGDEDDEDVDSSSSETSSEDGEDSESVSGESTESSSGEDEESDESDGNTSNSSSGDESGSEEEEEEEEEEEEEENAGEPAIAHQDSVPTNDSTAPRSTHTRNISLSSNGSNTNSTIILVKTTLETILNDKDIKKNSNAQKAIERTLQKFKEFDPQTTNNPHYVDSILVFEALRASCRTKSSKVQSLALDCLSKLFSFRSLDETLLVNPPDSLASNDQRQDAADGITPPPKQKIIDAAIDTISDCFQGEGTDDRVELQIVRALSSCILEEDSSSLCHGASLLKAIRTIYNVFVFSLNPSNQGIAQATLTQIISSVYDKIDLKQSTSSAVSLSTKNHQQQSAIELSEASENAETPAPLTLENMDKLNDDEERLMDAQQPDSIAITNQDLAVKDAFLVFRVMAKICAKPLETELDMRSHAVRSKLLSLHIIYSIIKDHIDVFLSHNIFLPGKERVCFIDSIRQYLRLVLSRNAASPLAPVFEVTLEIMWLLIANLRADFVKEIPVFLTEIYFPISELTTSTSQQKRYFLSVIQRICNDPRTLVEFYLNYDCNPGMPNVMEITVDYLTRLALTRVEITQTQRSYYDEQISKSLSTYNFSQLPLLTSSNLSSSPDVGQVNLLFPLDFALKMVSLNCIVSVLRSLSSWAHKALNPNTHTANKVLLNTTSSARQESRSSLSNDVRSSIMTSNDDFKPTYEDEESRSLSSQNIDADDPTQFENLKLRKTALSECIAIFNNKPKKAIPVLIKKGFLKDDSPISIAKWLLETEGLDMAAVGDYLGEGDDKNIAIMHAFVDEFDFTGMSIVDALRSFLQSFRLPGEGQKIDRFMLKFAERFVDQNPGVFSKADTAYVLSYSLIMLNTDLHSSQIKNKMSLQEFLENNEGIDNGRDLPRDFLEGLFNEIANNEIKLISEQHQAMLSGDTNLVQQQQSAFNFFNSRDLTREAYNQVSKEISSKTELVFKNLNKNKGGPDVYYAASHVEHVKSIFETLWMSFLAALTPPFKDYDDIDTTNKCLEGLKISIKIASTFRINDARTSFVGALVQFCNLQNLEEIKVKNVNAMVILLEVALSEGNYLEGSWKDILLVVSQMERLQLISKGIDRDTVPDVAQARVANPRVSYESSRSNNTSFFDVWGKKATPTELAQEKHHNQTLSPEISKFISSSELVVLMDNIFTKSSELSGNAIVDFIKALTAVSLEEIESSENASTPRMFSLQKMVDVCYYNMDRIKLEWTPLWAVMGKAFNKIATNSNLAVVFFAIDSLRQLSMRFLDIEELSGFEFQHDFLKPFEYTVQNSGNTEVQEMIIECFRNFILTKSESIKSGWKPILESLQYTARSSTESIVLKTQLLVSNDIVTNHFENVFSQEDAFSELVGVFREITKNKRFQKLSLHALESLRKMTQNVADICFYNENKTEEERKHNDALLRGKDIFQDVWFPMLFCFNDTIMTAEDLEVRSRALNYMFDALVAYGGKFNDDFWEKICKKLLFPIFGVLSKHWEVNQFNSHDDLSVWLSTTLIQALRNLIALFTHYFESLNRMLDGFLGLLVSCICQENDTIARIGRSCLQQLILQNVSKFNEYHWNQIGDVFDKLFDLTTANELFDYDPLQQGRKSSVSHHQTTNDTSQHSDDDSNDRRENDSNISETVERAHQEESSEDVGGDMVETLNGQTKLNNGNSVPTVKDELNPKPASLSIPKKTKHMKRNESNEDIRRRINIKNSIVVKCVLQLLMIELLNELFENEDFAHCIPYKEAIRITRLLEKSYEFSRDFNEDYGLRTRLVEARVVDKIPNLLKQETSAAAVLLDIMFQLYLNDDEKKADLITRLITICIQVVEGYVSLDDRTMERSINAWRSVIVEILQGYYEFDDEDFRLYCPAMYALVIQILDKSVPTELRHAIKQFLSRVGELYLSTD

Gyp6 [2] = biological target: T2, Gyp6; assay: liposome flotation; remark: listed apart in the source

Row | Binder | binding result (Gdi1) | binding result (Gyp6 [1]) | binding result (Sec7) | binding result (Gyp6 [2])
1 | B1 | binds | binds | binds | –
2 | B2 | – | – | – | binds
3 | B3 | binds | – | – | –
4 | B4 | binds | – | – | –

— PMC8351538 (Molecular Biology of the Cell, 2021)
